Values of other authors, collected in publication PMC11335090.

Target: AXL (Homo sapiens) (UniProt P30530)
UniProt P30530, sequence (P30530 26-451): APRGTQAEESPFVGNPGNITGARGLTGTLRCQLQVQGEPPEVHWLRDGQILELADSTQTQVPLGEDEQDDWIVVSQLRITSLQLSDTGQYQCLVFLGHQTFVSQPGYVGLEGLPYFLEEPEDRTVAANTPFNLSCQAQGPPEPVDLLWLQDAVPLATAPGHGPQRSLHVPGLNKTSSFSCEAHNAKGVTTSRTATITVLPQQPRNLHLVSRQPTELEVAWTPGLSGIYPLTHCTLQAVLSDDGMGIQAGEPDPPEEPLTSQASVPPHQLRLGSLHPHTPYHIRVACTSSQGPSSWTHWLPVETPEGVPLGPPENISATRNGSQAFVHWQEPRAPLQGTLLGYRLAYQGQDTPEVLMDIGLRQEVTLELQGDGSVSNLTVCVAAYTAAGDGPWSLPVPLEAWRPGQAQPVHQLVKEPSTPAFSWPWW

Kd: 0.032 nM
Substance: GAS6 (from UniProt Q14393)
